Results reported in EP4631972A1, “SITE-SPECIFIC COUPLED PEGYLATED INTERLEUKIN-2 MUTANT WITH RECEPTOR AFFINITY PREFERENCE AND USE THEREOF” (priority 2022, dated 2024).

How the values were obtained:
Treg cells [1] = assay: P-STAT5 activation in Treg cells of human PBMCs (flow cytometry); assay type: cell-based; details: P-STAT5 MFI in CD3+/CD4+/CD25+ cells of human PBMCs, 30 min stimulation
Experimental: In the example, the activation effect of each mutant prepared in Example 6 on P-STAT5 in different cell subsets (Tregs, CD8+T cells, NK cells) from human PBMCs (Miaoshun Biotechnology) was detected.
Human PBMC cells were thawed and resuspended to 1.5×10^6 cells/ml in RPMI1640 medium containing 10% FBS. 100 µl was added to each well of a V-bottom 96-well culture plate. Each IL-2 mutant prepared in Example 6 was diluted 10-fold in series: 1000 nM was used as the working concentration for the first well, and then 100 µl/well of each serial dilution was added to each cultured cell, stimulated at 37°C for 30 min, and the reaction was terminated on ice. The cells were treated with a commercial fixative and permeabilization agent (BD biosciences 558049 & 558050), and stained with antibodies against CD3, CD4, CD25, and CD8 according to conventional methods. P-STAT5 antibody staining was also performed (Table 7) to detect the mean fluorescence intensity (MFI) of P-STAT5 in CD3+/CD4+/CD25+ (Treg cells) and CD8+/CD3+ cells ([…]) by flow cytometry.

Treg cells [2] = assay: Pharmacodynamic (PD) study in mice, peripheral Treg cells; assay type: in vivo, Balb/c mice; details: 1 mg/kg s.c. single administration
Experimental: In this example, the pharmacodynamics (PD) of each IL-2 mutant obtained in Example 6 was studied in mice after a single administration to mice. SPF grade Balb/c mice were purchased and randomly divided into groups according to body weight, with 3 mice in each group. Drug administration started on the day of grouping. The dosing and grouping information is shown in Table 9, where G1-G5 were administered once, G6 and G7 were administered once a day, for a total of three doses. 30 µl of blood was taken from each group of mice, for PEGylated IL2 mutants and the negative control, blood was collected on day 0 (pre-administration), day 2, 3, 4, 5, 6 and 7 (only for G3, G4 and G5), and for IL2 and IL2-N88R, blood was collected on day 0 (pre-administration), day 1, 2 and 3. The number of each cell subpopulation was measured by flow cytometry. Antibodies against the staining marker used in flow cytometry are shown in Table 10, and the gating settings are shown in Table 11. Table 9 Dosing and grouping table for single-dose PD study in mice

Treg cells [3] = assay: Pharmacodynamic study in cynomolgus monkeys, peripheral Treg cells; assay type: in vivo; details: doses ≤400 µg/kg
From the text: For information on administration and grouping, see Table 14.

[4] = mouse, in vivo, sc, 1 mg/kg
Experimental: (§1) Balb/c mice were purchased, with 4 mice in each group. Each IL-2 mutant to be tested was administered subcutaneously once at a dose of 1 mg/kg. Blood was collected from the orbit at different time points after administration, and the plasma was separated and the plasma drug concentration was detected by ELISA. The main pharmacokinetic parameters were calculated, and C-T curve was plotted.

[5] = Pharmacokinetic study in cynomolgus monkeys; details: cynomolgus monkey
Experimental: Blood was collected before and after administration (4h, 8h, 24h, 48h, 72h, 120h, 168h, 240h, 336h) in the first cycle and after administration (8h, 24h, 48h, 72h, 120h, 168h, 240h) in the second cycle to detect plasma drug concentration.

[6] = Pharmacokinetic study in mice, single administration, plasma concentration by ELISA; details: 1 mg/kg s.c. single administration
Experimental: as §1

[7] = female, first-cycle dosing 50 µg/kg s.c.
[8] = female, second-cycle dosing 400 µg/kg s.c.
[9] = male, first-cycle dosing 50 µg/kg s.c.
[10] = male, second-cycle dosing 400 µg/kg s.c.

EC50 (Treg cells [1]): 35.1 nM
Substance: 60K-1PEG-IL2-N88R-N77C: IL2-N88R-N77C with 60 kDa PEG conjugated to the cysteine at position 77
activation peak of Treg proportion, time (Treg cells [2]): 6 days
increase in Treg proportion at peak (Treg cells [2]): about 15 fold
activation and proliferation of peripheral blood Treg cells (Treg cells [3]): clear activation and proliferation
T1/2 [4]: 20.78 ± 1.92 h
AUC inf [5, 7]: 181.7098 µg·h/mL
AUClast [5, 7]: 148.6109 µg·h/mL
CL [5, 7]: 0.28
Cmax [5, 7]: 701.0718 ng/mL
MRT [5, 7]: 128.4211 h
Tmax [5, 7]: 72 h
AUC inf [5, 8]: 2158.472 µg·h/mL
AUClast [5, 8]: 1360.931 µg·h/mL
CL [5, 8]: 0.19
Cmax [5, 8]: 10419.65 ng/mL
MRT [5, 8]: 101.9 h
Tmax [5, 8]: 8 h
AUC inf [5, 9]: 213.0031 µg·h/mL
AUClast [5, 9]: 157.7992 µg·h/mL
CL [5, 9]: 0.23
Cmax [5, 9]: 815.2866 ng/mL
MRT [5, 9]: 135.9233 h
Tmax [5, 9]: 48 h
AUC inf [5, 10]: 2122.205 µg·h/mL
AUClast [5, 10]: 1412.112 µg·h/mL
CL [5, 10]: 0.19
Cmax [5, 10]: 10199.77 ng/mL
MRT [5, 10]: 100.7 h
Tmax [5, 10]: 8 h
AUC inf [6]: 392.06252 ± 33.89153 µg·h/mL
AUClast [6]: 380.55249 ± 34.19595 µg·h/mL
CL [6]: 2.56±0.22
Cmax [6]: 6633.54 ± 581.69 ng/mL
MRT [6]: 39.45 ± 0.44 h
Tmax [6]: 8 to 24 h
mean half-life [6]: 20.78 h
mean residence time (MRT) [6]: 39.45 h
